Paper PMC10811823

Legend:
western blot = settings: glycan changed form; control: control RAW264.7
[1] = Co-IP/western after MG132; settings: glycan changed form; control: control RAW264.7
[2] = CHX chase, western blot (protein persistence); settings: glycan changed form; control: control RAW264.7
[3] = Co-IP/western after MG132, HEK 293T; settings: glycan lost; control: WT/LG

Protein | expression_or_secretion (western blot) | other: ubiquitination [1] | degradation_or_half_life [2] | other: ubiquitination [3]
Lgals3bp (galectin 3 binding protein): RAW/shM1 (MGAT3 silenced) (protein) parent chain: MALLWLLSVFLLVPGTQGTEDGDMRLVNGASANEGRVEIFYRGRWGTVCDNLWNLLDAHVVCRALGYENATQALGRAAFGPGKGPIMLDEVECTGTESSLASCRSLGWMVSRCGHEKDAGVVCSNDTTGLHILDLSGELSDALGQIFDSQQGCDLFIQVTGQGYEDLSLCAHTLILRTNPEAQALWQVVGSSVIMRVDAECMPVVRDFLRYFYSRRIEVSMSSVKCLHKLASAYGATELQDYCGRLFATLLPQDPTFHTPLDLYAYARATGDSMLEDLCVQFLAWNFEPLTQSESWSAVPTTLIQALLPKSELAVSSELDLLKAVDQWSTETIASHEDIERLVEQVRFPMMLPQELFELQFNLSLYQDHQALFQRKTMQALEFHTVPVEVLAKYKGLNLTEDTYKPRLYTSSTWSSLVMASTWRAQRYEYNRYNQLYTYGYGSVARYNSYQSFQTPQHPSFLFKDKQISWSATYLPTMQSCWNYGFSCTSNELPVLGLTTSSYSNPTIGYENRVLILCGGYSVVDVTSFEGSKAPIPTALDTNSSKTPSLFPCASGAFSSFRVVIRPFYLTNSTDMV | increases | decreases | increases | 
Lgals3bp (galectin 3 binding protein): N69A/LG (protein) parent chain: MALLWLLSVFLLVPGTQGTEDGDMRLVNGASANEGRVEIFYRGRWGTVCDNLWNLLDAHVVCRALGYENATQALGRAAFGPGKGPIMLDEVECTGTESSLASCRSLGWMVSRCGHEKDAGVVCSNDTTGLHILDLSGELSDALGQIFDSQQGCDLFIQVTGQGYEDLSLCAHTLILRTNPEAQALWQVVGSSVIMRVDAECMPVVRDFLRYFYSRRIEVSMSSVKCLHKLASAYGATELQDYCGRLFATLLPQDPTFHTPLDLYAYARATGDSMLEDLCVQFLAWNFEPLTQSESWSAVPTTLIQALLPKSELAVSSELDLLKAVDQWSTETIASHEDIERLVEQVRFPMMLPQELFELQFNLSLYQDHQALFQRKTMQALEFHTVPVEVLAKYKGLNLTEDTYKPRLYTSSTWSSLVMASTWRAQRYEYNRYNQLYTYGYGSVARYNSYQSFQTPQHPSFLFKDKQISWSATYLPTMQSCWNYGFSCTSNELPVLGLTTSSYSNPTIGYENRVLILCGGYSVVDVTSFEGSKAPIPTALDTNSSKTPSLFPCASGAFSSFRVVIRPFYLTNSTDMV |  |  |  | decreases
Lgals3bp (galectin 3 binding protein): RAW/MGAT3 (MGAT3 overexpressed) (protein) parent chain: MALLWLLSVFLLVPGTQGTEDGDMRLVNGASANEGRVEIFYRGRWGTVCDNLWNLLDAHVVCRALGYENATQALGRAAFGPGKGPIMLDEVECTGTESSLASCRSLGWMVSRCGHEKDAGVVCSNDTTGLHILDLSGELSDALGQIFDSQQGCDLFIQVTGQGYEDLSLCAHTLILRTNPEAQALWQVVGSSVIMRVDAECMPVVRDFLRYFYSRRIEVSMSSVKCLHKLASAYGATELQDYCGRLFATLLPQDPTFHTPLDLYAYARATGDSMLEDLCVQFLAWNFEPLTQSESWSAVPTTLIQALLPKSELAVSSELDLLKAVDQWSTETIASHEDIERLVEQVRFPMMLPQELFELQFNLSLYQDHQALFQRKTMQALEFHTVPVEVLAKYKGLNLTEDTYKPRLYTSSTWSSLVMASTWRAQRYEYNRYNQLYTYGYGSVARYNSYQSFQTPQHPSFLFKDKQISWSATYLPTMQSCWNYGFSCTSNELPVLGLTTSSYSNPTIGYENRVLILCGGYSVVDVTSFEGSKAPIPTALDTNSSKTPSLFPCASGAFSSFRVVIRPFYLTNSTDMV |  |  | decreases | 
